In US20260248897:

Tests used:
[1] = molecular target: RBD of SARS-CoV-2 (B lineage) (UniProt P0DTC2)
[2] = molecular target: RBD of SARS-CoV-2, on infectious virus (UniProt P0DTC2)
RBD of hCoV-229E = RBD of hCoV-229E (UniProt P15423)

Substance	disulfide bond cleavage activity (remaining rate of native RBD; maleimide-PEG 2k, SDS-PAGE) [1]	antiviral activity (number of viral copies of SARS-CoV-2 in supernatant of infected airway organoids) [2]	disulfide bond cleavage activity (remaining rate of native RBD; maleimide-PEG 2k, SDS-PAGE) (RBD of hCoV-229E)
gene recombinant of human ERp46 (thioredoxin domain containing 5)	The order of the disulfide bond cleavage activity of the RBD from highest to lowest was PDI, ERp46, P5, ERp72, and ERp57.	Both PDI and ERp46 inhibited the SARS-CoV-2 infection in a concentration-dependent manner.	The order of the disulfide bond cleavage activity of the RBD of hCoV-229E from highest to lowest was PDI, ERp46, P5, Erp57, and ERp72.
gene recombinant of human PDI (protein disulfide isomerase)	The order of the disulfide bond cleavage activity of the RBD from highest to lowest was PDI, ERp46, P5, ERp72, and ERp57. Among these, the disulfide bond cleavage activity of PDI was significantly high.	Both PDI and ERp46 inhibited the SARS-CoV-2 infection in a concentration-dependent manner.	The order of the disulfide bond cleavage activity of the RBD of hCoV-229E from highest to lowest was PDI, ERp46, P5, Erp57, and ERp72. Among these, the disulfide bond cleavage activity of PDI was significantly high.
